Results from PMC9947773, “Modeling C3 glomerulopathies: C3 convertase regulation on an extracellular matrix surface” (Frontiers in Immunology, 2022).

Molecular target: T1, C3b (human, UniProt P01024 23-667; P01024 749-1663)
T1 construct: complement C3, human; beta chain of C3b; alpha' chain of C3b (alpha chain without C3a); Coated on MaxGel (ECM) in microtiter wells at 130 ug/ml; also called purified C3b; source: bought: Complement Technology Inc., purified
Test: C3 convertase formation assay (C3CFA), elution and western blot for Bb; C3b coated on MaxGel; FB + FD with Factor H or a Factor H variant as reactant (22.5 ug/ml), 10 min at 37°C; washed x3; eluted
Details: both partners purified

T1 sequence (P01024 23-667, chain 1 of 2): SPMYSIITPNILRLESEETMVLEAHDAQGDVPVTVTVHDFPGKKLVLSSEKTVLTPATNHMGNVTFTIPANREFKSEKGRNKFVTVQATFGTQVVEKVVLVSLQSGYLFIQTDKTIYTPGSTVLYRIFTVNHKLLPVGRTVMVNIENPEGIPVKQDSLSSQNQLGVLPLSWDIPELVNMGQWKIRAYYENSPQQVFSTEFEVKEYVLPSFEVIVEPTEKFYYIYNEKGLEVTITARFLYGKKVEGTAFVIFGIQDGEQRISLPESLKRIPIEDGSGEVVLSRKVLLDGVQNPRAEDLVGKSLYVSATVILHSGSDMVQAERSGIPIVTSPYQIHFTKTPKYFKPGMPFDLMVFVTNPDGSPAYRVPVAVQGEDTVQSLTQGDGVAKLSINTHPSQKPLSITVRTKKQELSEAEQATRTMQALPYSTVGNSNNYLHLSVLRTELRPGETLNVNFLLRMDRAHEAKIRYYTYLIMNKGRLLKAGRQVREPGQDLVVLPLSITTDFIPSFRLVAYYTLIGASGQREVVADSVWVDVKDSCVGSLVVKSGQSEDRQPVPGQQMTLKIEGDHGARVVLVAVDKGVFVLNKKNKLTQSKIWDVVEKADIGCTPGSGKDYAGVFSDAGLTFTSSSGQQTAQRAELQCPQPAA
T1 sequence (P01024 749-1663, chain 2 of 2): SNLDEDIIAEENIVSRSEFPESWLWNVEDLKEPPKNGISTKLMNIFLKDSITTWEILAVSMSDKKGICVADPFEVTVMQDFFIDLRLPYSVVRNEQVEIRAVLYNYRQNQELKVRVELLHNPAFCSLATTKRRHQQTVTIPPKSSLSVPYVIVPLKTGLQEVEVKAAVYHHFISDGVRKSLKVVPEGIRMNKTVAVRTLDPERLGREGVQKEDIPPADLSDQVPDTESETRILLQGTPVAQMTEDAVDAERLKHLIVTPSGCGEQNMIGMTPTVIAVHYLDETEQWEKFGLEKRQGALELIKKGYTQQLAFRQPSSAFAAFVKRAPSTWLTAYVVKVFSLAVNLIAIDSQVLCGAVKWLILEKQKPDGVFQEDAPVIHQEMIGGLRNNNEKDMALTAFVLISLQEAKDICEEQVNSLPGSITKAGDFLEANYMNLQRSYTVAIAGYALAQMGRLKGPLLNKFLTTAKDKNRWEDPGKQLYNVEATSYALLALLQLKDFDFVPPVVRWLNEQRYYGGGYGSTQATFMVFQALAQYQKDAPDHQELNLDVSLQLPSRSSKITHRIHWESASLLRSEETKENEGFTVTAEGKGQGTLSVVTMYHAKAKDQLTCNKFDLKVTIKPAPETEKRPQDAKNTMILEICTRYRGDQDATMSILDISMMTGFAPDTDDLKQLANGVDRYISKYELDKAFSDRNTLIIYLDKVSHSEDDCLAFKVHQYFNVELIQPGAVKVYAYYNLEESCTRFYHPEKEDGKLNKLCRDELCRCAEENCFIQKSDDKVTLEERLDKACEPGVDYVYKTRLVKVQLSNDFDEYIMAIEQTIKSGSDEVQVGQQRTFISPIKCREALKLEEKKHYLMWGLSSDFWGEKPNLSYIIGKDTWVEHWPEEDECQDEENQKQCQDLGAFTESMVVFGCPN

binding result: binds
B1: Factor H (natural protein, human, UniProt P08603 19-1231, looked up)
chain: EDCNELPPRRNTEILTGSWSDQTYPEGTQAIYKCRPGYRSLGNVIMVCRKGEWVALNPLRKCQKRPCGHPGDTPFGTFTLTGGNVFEYGVKAVYTCNEGYQLLGEINYRECDTDGWTNDIPICEVVKCLPVTAPENGKIVSSAMEPDREYHFGQAVRFVCNSGYKIEGDEEMHCSDDGFWSKEKPKCVEISCKSPDVINGSPISQKIIYKENERFQYKCNMGYEYSERGDAVCTESGWRPLPSCEEKSCDNPYIPNGDYSPLRIKHRTGDEITYQCRNGFYPATRGNTAKCTSTGWIPAPRCTLKPCDYPDIKHGGLYHENMRRPYFPVAVGKYYSYYCDEHFETPSGSYWDHIHCTQDGWSPAVPCLRKCYFPYLENGYNQNYGRKFVQGKSIDVACHPGYALPKAQTTVTCMENGWSPTPRCIRVKTCSKSSIDIENGFISESQYTYALKEKAKYQCKLGYVTADGETSGSITCGKDGWSAQPTCIKSCDIPVFMNARTKNDFTWFKLNDTLDYECHDGYESNTGSTTGSIVCGYNGWSDLPICYERECELPKIDVHLVPDRKKDQYKVGEVLKFSCKPGFTIVGPNSVQCYHFGLSPDLPICKEQVQSCGPPPELLNGNVKEKTKEEYGHSEVVEYYCNPRFLMKGPNKIQCVDGEWTTLPVCIVEESTCGDIPELEHGWAQLSSPPYYYGDSVEFNCSESFTMIGHRSITCIHGVWTQLPQCVAIDKLKKCKSSNLIILEEHLKNKKEFDHNSNIRYRCRGKEGWIHTVCINGRWDPEVNCSMAQIQLCPPPPQIPNSHNMTTTLNYRDGEKVSVLCQENYLIQEGEEITCKDGRWQSIPLCVEKIPCSQPPQIEHGTINSSRSSQESYAHGTKLSYTCEGGFRISEENETTCYMGKWSSPPQCEGLPCKSPPEISHGVVAHMSDSYQYGEEVTYKCFEGFGIDGPAIAKCLGEKWSHPPSCIKTDCLSLPSFENAIPMGEKKDVYKAGEQVTYTCATYYKMDGASNVTCINSRWTGRPTCRDTSCVNPPTVQNAYIVSRQMSKYPSGERVRYQCRSPYEMFGDEEVMCLNGNWTEPPQCKDSTGKCGPPPPIDNGDITSFPLSVYAPASSVEYQCQNLYQLEGNKRITCRNGQWSEPPKCLHPCVISREIMENYNIALRWTAKQKLYSRTGESVEFVCKRGYRLSSRSHTLRTTCWDGKLEYPTCAKR
notes: complement factor H, human; Used at 22.5 ug/ml; also called FH; WT FH; source: bought: Complement Technology Inc
